The record followed here is PMC2700515 (The Journal of Cell Biology, 2009).

The target in test [1] is T1, hCen2, purified (GST removed) (human, UniProt P41208 1-172).
T1 sequence: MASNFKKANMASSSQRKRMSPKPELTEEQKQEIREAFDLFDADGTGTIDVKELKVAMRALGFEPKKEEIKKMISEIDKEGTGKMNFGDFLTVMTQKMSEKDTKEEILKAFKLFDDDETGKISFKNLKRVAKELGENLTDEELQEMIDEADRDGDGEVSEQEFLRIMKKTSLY
In words: pull-down.

Test [2] concerns the target T2, hCen3, purified (GST removed) (human, UniProt O15182 1-167).
T2 sequence: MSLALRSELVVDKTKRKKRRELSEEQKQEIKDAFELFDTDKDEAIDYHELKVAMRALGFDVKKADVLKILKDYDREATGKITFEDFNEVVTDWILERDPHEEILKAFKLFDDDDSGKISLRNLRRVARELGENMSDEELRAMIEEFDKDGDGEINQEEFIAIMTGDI
Nature of the test: pull-down.

B1: GST-hPOC5 CBR2+3 (aa 222-304) (domain or fragment)
chain: EISIGRKDEVISSLSHAIGKQKEKIELMRTFFHWRIGHVRARQDVYEGKLADQYYQRTLLKKVWKVWRSVVQKQWKDVVERAC
Regarding B1, the binding result in test [1] and in test [2] was “binds” in each case.
